Experiments:
[1] = molecular target: Factor X, P00742
[2] = molecular target: plasma purified human AT-III (antithrombin III), in complex with low molecular weight heparin
[3] = molecular target: Factor X (FX), P00742
[4] = molecular target: Antithrombin III (plasma purified human AT-III) in complex with unfractionated heparin; assay: ratio of K0.5 of variant to K0.5 of Catalyst Biosciences WT FIXa, AT-III/UFH inhibition assay

Chain of Factor X, P00742 (P00742 whole entry, looked up): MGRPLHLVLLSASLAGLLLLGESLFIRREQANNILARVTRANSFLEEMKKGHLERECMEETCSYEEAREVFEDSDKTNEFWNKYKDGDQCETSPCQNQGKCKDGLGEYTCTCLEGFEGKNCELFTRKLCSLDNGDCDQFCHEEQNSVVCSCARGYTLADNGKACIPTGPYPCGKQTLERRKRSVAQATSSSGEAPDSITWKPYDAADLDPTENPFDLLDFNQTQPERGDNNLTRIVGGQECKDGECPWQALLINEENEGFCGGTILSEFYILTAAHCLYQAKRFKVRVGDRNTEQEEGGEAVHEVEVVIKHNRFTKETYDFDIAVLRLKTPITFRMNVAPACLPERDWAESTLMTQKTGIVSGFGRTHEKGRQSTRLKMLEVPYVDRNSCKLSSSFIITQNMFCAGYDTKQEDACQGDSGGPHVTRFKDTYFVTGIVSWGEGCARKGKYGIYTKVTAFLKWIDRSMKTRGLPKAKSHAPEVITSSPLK
Chain of Factor X (FX), P00742 (P00742 whole entry, looked up): as above

Row | Protein | KM of FX activation by FIXa in the Xase complex (FVIIIa, PC/PS vesicles, Ca2+); fluorogenic Spectrafluor FXa assay [1] | K0.5-mut/K0.5-wt (against Catalyst Biosciences WT FIXa), AT-III/LMWH [2] | KM [3] | K0.5-mut/K0.5-wt [4]
1 | FIXa-K293E/R338E/R403E (protein) chain 1: not shown chain 2: not shown | 0.05 µM | 14.2 fold | 0.05 µM | 
2 | FIXa variant R318Y/R338E/E410N/T412V (protein) chain 1: not shown chain 2: not shown |  |  |  | > 517

Source: patent publication US11491212
